Measurements reported in paper doi:10.1101/2023.11.28.568818 (bioRxiv, 2023).

Biological target: the molecule itself
Experiment: ThT fluorescence + negative stain TEM

| Protein | binding result |
| --- | --- |
| VPGGGSVQIVYKPV [jΔR3 peptide (C-terminal half of jR2R3, tau 300-313)] | binds |
| VLGGGSVQIVYKPV [jΔR3-P301L peptide (tau 300-313 with P301L)] | binds |
| DNIKHVPGGGSVQIVYKPV [jR2R3 peptide (tau residues 295-313)] | binds |
